This passage reports Kd results from article PMC12822440, “An Aptamer‐Based EXACT Anticoagulant as a Sustainable, Animal‐Free Alternative to Unfractionated Heparin”.

The target in data set [1] is prothrombin (UniProt P00734 44-622). Description: filter binding; dabigatran covalently attached to the aptamer; Nitrocellulose filter binding, 32P 5'-labelled aptamer (500 CPM/uL), selection buffer (composition not given), 5 min at room temperature, n = 2. Particulars: protein: commercial; label: 5'-32P.
Data set [2] deals with T1, thrombin (alpha-thrombin) (UniProt P00734;P00734 315-363;364-622). The data set is described as follows: filter binding; dabigatran covalently attached to the aptamer, occupies the active site; Nitrocellulose filter binding, 32P 5'-labelled aptamer (500 CPM/uL), selection buffer (composition not given), 5 min at room temperature, n = 2.
Data set [3] has as its target T1, thrombin (alpha-thrombin). The data set is described as follows: filter binding; Nitrocellulose filter binding, 32P 5'-labelled aptamer (500 CPM/uL), selection buffer (composition not given), 5 min at room temperature, n = 2.

As for GGTTGGTGTGGTTGGAAAAAAAAAAAA (structured_DNA, 3'-dabigatran conjugate (DAB) through 12-nt dA linker) [HD1-12A-DAB], the Kd was determined as 296 nM in data set [1] and 0.0131 nM in data set [2].

Take GGTTGGTGTGGTTGG (structured_DNA) [HD1]: in data set [3], binding was characterised by a dissociation constant (Kd) of 110 nM.

As usually defined, the Kd is the free concentration of one partner at which half of the binding sites on the other are occupied at equilibrium, for simple one-to-one binding. A higher Kd goes with a looser complex.
